Drawing on PMC7660301, “Phe-140 Determines the Catalytic Efficiency of Arylacetonitrilase from Alcaligenes faecalis” (International Journal of Molecular Sciences, 2020), this text covers Km, kcat and kcat/Km for seven molecules.

The term Km denotes the concentration of substrate that gives half-maximal velocity. In general, kcat refers to the maximal rate divided by the concentration of active sites. What is called kcat/Km is the second-order rate constant that governs catalysis at low substrate concentration.

The first series concerns N#CCc1ccccc1. In words: ammonia release, Michaelis-Menten. It counts as biochemical, Alcaligenes faecalis. The note with it: 50 mM buffer pH 7.5, 10% methanol, 30 °C, 0.5-30 mM substrate. The text has this:
(§1) ammonia release, Michaelis-Menten on Arylacetonitrilase from Alcaligenes faecalis (NitAF)
For the molecule “Arylacetonitrilase from Alcaligenes faecalis (NitAF) (Alcaligenes faecalis; F140A)”, the Km worked out at 4.20 ± 0.41 mM, the kcat came to 15.6 ± 1.2 s⁻¹ and the kcat/Km came to 3710 M⁻¹ s⁻¹.
For the molecule “Arylacetonitrilase from Alcaligenes faecalis (NitAF) (Alcaligenes faecalis; F140G)”, the Km was 24.1 ± 2.2 mM.
As to “Arylacetonitrilase from Alcaligenes faecalis (NitAF) (Alcaligenes faecalis; F140H)”, the Km amounted to 0.89 ± 0.10 mM, the kcat was 63.5 ± 4.7 s⁻¹ and the kcat/Km came out at 71400 M⁻¹ s⁻¹.
The like results for “Arylacetonitrilase from Alcaligenes faecalis (NitAF) (Alcaligenes faecalis; F140L)” were, in that order, 2.13 ± 0.21 mM, 38.8 ± 3.8 s⁻¹ and 18200 M⁻¹ s⁻¹.
Take “Arylacetonitrilase from Alcaligenes faecalis (NitAF) (Alcaligenes faecalis; F140V)”: the Km was found to be 2.95 ± 0.32 mM, the kcat worked out at 25 ± 2.4 s⁻¹ and the kcat/Km was 8480 M⁻¹ s⁻¹.
“Arylacetonitrilase from Alcaligenes faecalis (NitAF) (Alcaligenes faecalis; F140W)”: the Km came out at 1.45 ± 0.12 mM, the kcat stood at 143 ± 12 s⁻¹ and the kcat/Km stood at 98600 M⁻¹ s⁻¹.

The target in a further series is T1, Arylacetonitrilase from Alcaligenes faecalis (NitAF) (Alcaligenes faecalis, UniProt P20960).
T1 construct: full-length with C-terminal His6 tag (tag kept), vector pTrc99A-derived, E. coli BL21(DE3), Ni-NTA; 1071 bp, 357 amino acids printed; subunit about 32 kDa by SDS-PAGE, native about 460 kDa (homo-oligomer)
T1 sequence (P20960 whole entry): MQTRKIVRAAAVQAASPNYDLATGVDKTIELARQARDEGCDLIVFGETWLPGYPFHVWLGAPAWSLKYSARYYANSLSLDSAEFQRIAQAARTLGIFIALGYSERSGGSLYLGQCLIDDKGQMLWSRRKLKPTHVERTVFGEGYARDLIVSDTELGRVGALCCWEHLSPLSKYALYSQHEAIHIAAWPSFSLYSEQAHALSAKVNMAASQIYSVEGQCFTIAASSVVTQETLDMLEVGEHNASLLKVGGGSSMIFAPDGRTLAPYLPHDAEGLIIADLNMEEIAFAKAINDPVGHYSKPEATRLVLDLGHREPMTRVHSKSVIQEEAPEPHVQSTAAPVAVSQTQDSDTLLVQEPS
In words: ammonia release, Michaelis-Menten. It counts as biochemical. The following applies: 50 mM buffer pH 7.5, 10% methanol, 30 °C, 0.5-30 mM substrate.
Text: as §1
As for `N#CCc1ccccc1` [phenylacetonitrile], the Km turned out to be 860 ± 70 µM.
